The text below walks through data of PMC5143164 (Structure (London, England : 1993), 2016).

The labels stand for the following.
B1: trypsin-treated Rasip1 RA domain (domain or fragment, human, UniProt Q5U651 141-285, looked up)
chain: ATAPPGVLKIFGAGLASGANYKSVLATARSTARELVAEALERYGLAGSPGGGPGESSCVDAFALCDALGRPAAAGVGSGEWRAEHLRVLGDSERPLLVQELWRARPGWARRFELRGREEARRLEQEAFGAADSEGTGAPSWRPQK
B2: Radil RA domain (residues 51-193) (domain or fragment, human, UniProt Q96JH8 51-193, looked up)
chain: DPAELSTQLSAPGVLKVFGDSVCTGTHYKSVLATGTSSARELVKEALERYALDPRQAGQYVLCDVVGQAGDAGQRWQARCFRVFGDSEKPLLIQELWKPREGLSRRFELRKRSDVEELAAKEVDTITAGINAQARRLQRSRAK
B3: Rasip1 RA domain (residues 134-285) (domain or fragment, human, UniProt Q5U651 134-285, looked up)
chain: EPPLATRATAPPGVLKIFGAGLASGANYKSVLATARSTARELVAEALERYGLAGSPGGGPGESSCVDAFALCDALGRPAAAGVGSGEWRAEHLRVLGDSERPLLVQELWRARPGWARRFELRGREEARRLEQEAFGAADSEGTGAPSWRPQK
B4: Rap1B (residues 1-167), GMP-PNP bound (domain or fragment, human, UniProt P61224 1-167, looked up)
chain: MREYKLVVLGSGGVGKSALTVQFVQGIFVEKYDPTIEDSYRKQVEVDAQQCMLEILDTAGTEQFTAMRDLYMKNGQGFALVYSITAQSTFNDLQDLREQILRVKDTDDVPMILVGNKCDLEDERVVGKEQGQNLARQWNNCAFLESSAKSKINVNEIFYDLVRQINR

The series “crystal structure” deals with the molecule itself. The series can be described thus: crystal structure.
For series [1], the target named is B4. The experiment in a line: crystal structure.
The target in series [2] is B4. The series can be described thus: ITC. On the technique in general: Isothermal titration calorimetry measures the heat released or taken up as one component is titrated into another.
Series [3] concerns the target HRas (residues 1-189), GMP-PNP bound (human, UniProt P01112 1-189). The experiment in a line: ITC.
The series “NMR linewidths” concerns the molecule itself. The experiment in a line: NMR linewidths.
Series [4] concerns the target B4. The experiment in a line: ITC. The source holds these as a separate data set.
The target in series [5] is B3. The series can be described thus: ITC.
Series [6] addresses B2. The experiment in a line: ITC.

Read-outs that look alike come from different tables or passages of the source.

Sequence of HRas (residues 1-189), GMP-PNP bound (P01112 whole entry, the tested form may be a part): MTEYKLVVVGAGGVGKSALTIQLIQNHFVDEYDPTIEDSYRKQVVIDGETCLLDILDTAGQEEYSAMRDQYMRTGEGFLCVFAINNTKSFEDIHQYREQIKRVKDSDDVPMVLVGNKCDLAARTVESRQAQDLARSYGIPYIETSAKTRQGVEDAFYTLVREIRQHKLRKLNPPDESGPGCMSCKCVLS

Turning to B1, the binding result (in “crystal structure”; in series [1]) was “binds” throughout.
As a reminder, the Kd is the concentration at which binding is half-saturated. B2: the dissociation constant Kd in series [2] amounted to 1200 nM; in series [3], 3900 nM.
In the case of B3, in the series “NMR linewidths”, the binding result is listed as “binds”. For the same molecule, the Kd was determined as 770 ± 90 nM in series [4], 900 nM in series [2] and 2200 nM in series [3].
The stoichiometry N is a count of units in the complex or per binding partner. Regarding B4, the dH is -3.4 kcal/mol in series [5] and -6.5 kcal/mol in series [6]. The “stoichiometry N” value was determined as 1.22 in series [5] and 1.04 in series [6].
